Measurements published in patent publication US20210102001A1 (CHIMAGEN BIOSCIENCES, published 2021).
Changes are numbered by the printed parent chain. Where two headings read alike, the source gives them in different places.

B1: Antibody #1, CD19×CD3 Di-Diabody from HD37 and UCHT1, no interface mutations (bispecific antibody)
chain 1: DIQLTQSPASLAVSLGQRATISCKASQSVDYDGDSYLNWYQQIPGQPPKLLIYDASNLVSGIPPRFSGSGSGTDFTLNIHPVEKVDAATYHCQQSTEDPWTFGGGTKLEIKRTVAAEVQLVESGGGLVQPGGSLRLSCAASGYSFTGYTMNWVRQAPGKGLEWVALINPYKGVSTYNQKFKDRFTISVDKSKNTAYLQMNSLRAEDTAVYYCARSGYYGDSDWYFDVWGQGTLVTVSS
chain 2: DIQMTQSPSSLSASVGDRVTITCRASQDIRNYLNWYQQKPGKAPKLLIYYTSRLESGVPSRFSGSGSGTDYTLTISSLQPEDFATYYCQQGNTLPWTFGQGTKVEIKRTVAAQVQLQQSGAELVRPGSSVKISCKASGYAFSSYWMNWVKQRPGQGLEWIGQIWPGDGDTNYNGKFKGKATLTADESSSTAYMQLSSLASEDSAVYFCARRETTTVGRYYYAMDYWGQGTSVTVSS
notes: Peptide 1: CD19VL-linker-CD3VH-hinge-CH2-CH3; also called 001; Sample01; not shown: hinge-CH2-CH3
B2: Antibody #9, CD19×CD3 DICAD (bispecific antibody, name in Kabat numbering)
chain 1: B1 chain 1 with Q42D, Q155D, G160C
chain 2: B1 chain 2 with Q38K, Q100C, Q151K
notes: also called 009; not shown: hinge-CH2-CH3
B3: Antibody #63, DICAD CD19×CD3 (1:1) bispecific (bispecific antibody)
chain 1: EIVLTQSPATLSVTPGERATLSCSASSSVSYMHWYQKKPGQAPRLLIYDTSKLASGIPARFSGSGSGTDFTLTISSLEPEDFAVYYCFQGSVYPFTFGCGTKLEIKRTVAAEVQLVESGGGLVQPGGSLRLSCAASGFTFNTYAMNWVRKAPGKGLEWVGRIRSKYNNYATYYADSVDKGRFTISRDDSKNSLYLQMNSLKTEDTAVYYCVRHGNFGNSYVSWFAYWGQGTLVTVSS
chain 2: EAVVTQEPSLTVSPGGTVTLTCRSSTGAVTTSNYANWVQDKPGQAPRGLIGGTNKRAPWTPARFSGSLLGGKAALTITGAQPEDEAGYYCALWYSNLWVFGGGTKLTVLRTVAAQVQLQESGPGLVKPSQTLSLTCTVSGGSISTSGMGVGWIRDHPGKCLEWIGHIWWDDDKRYNPALKSRVTISVDTSKNQFSLKLSSVTAADTAVYYCARMELWSYYFDYWGQGTTLTVSSASEPKSDKTHTCPPCPAPPVAGGPSVPLPPPKPKDTLMISRTPEVTCVVVDVSQEDPEVKFNWYVDGVGVHNAKTKPREEQFNSTYRVVSVLTVLHQDWLNGKEYKCKVSNKGLPSSIEKTISKAKGQPREPQVYTLPPCRDELTKNQVSLWCLVKGFYPSDIAVEWESNGQPENNYKTTPPVLDSDGSFFLYSKLTVDKSRWQQGNVFSCSVMHEALHNHYTQKSLSLSPGK
chain 3: DKTHTCPPCPAPPVAGGPSVFLFPPKPKDTLMISRTPEVTCVVVDVSQEDPEVKFNWYVDGVEVHNAKTKPREEQFNSTYRVVSVLTVLHQDWLNGKEYKCKVSNKGLPSSIEKTISKAKGQPREPQVCTLPPSRDELTKNQVSLSCAVKGFYPSDIAVEWESNGQPENNYKTTPPVLDSDGSFFLVSKLTVDKSRWQQGNVFSCSVMHEALHNRFTQKSLSLSPGK
notes: also called 063; #63-CD3×CD19 bispecific
B4: Antibody #55, CD3×CD19×CD8 tri-specific antibody (other)
chain 1: B3 chain 1
chain 2: B3 chain 2
heavy: QVQLVESGGGVVQPGRSLRLSCAASGPTFSDFGMNWVRKAPGKGLEWVALIYYDGSNKFYADSVKGRFTISRDNSKNTLYLQMNSLRAEDTAVYYCAKPHYDGYYHFFDSWGQGTLVTVSSASTKGPSVFPLAPGSSKSTSGTAALGCLVKDYFPEPVTVSWNSGALTSGVHTFPAVLQSSGLYSLSSVVTVPSSSLGTQTYICNVNHKPSNTKVDKKVEPKSCDKTHTCPPCPAPPVAGGPSVFLFPPKPKDTLMISRTPEVTCVVVDVSQEDPEVKFNWYVDGVEVHNAKTKPREEQFNSTYRVVSVLTVLHQDWLNGKEYKCKVSNKGLPSSIEKTISKAKGQPREPQVCTLPPSRDELTKNQVSLSCAVKGFYPSDIAVEWESNGQPENNYKTTPPVLDSDGSFFLVSKLTVDKSRWQQGNVFSCSVMHEALHNRFTQKSLSLSPGK
light: not shown
notes: Tri-specific antibody of four chains
B5: HD37, anti-CD19 parental antibody (#21) (antibody, V domains shown)
VH: QVQLQQSGAELVRPGSSVKISCKASGYAFSSYWMNWVKQRPGQGLEWIGQIWPGDGDTNYNGKFKGKATLTADESSSTAYMQLSSLASEDSAVYFCARRETTTVGRYYYAMDYWGQGTSVTVSS
VL: DIQLTQSPASLAVSLGQRATISCKASQSVDYDGDSYLNWYQQIPGQPPKLLIYDASNLVSGIPPRFSGSGSGTDFTLNIHPVEKVDAATYHCQQSTEDPWTFGGGTKLEIK
notes: also called 021
B6: Antibody #54, TRIAD CD19×CD3 (Fab arm anti-CD19) (bispecific antibody)
chain 1: B5 VL with Q42K, G104C
chain 2: EVQLVESGGGLVQPGGSLRLSCAASGYSFTGYTMNWVRKAPGKGLEWVALINPYKGVSTYNQKFKDRFTISVDKSKNTAYLQMNSLRAEDTAVYYCARSGYYGDSDWYFDVWGQGTLVTVSS
chain 3: DIQMTQSPSSLSASVGDRVTITCRASQDIRNYLNWYQDKPGKAPKLLIYYTSRLESGVPSRFSGSGSGTDYTLTISSLQPEDFATYYCQQGNTLPWTFGQGTKVEIK
chain 4: B5 VH with Q39D, G44C
chain 5: B5 VH
chain 6: B5 VL
B7: Antibody #50, TRIAD CD19×CD3 (Fab arm anti-CD19) (bispecific antibody)
chain 1: B6 chain 3 with D38K, Q100C
chain 2: B5 VH with Q39K
chain 3: B5 VL with Q42D
chain 4: B6 chain 2 with K39D, G44C
chain 5: B5 VH
chain 6: B5 VL
B8: Antibody #25, CD19×CD3 DICAD (bispecific antibody, name in Kabat numbering)
chain 1: DIQLTQSPASLAVSLGQRATISCKASQSVDYDGDSYLNWYQDIPGQPPKLLIYDASNLVSGIPPRFSGSGSGTDFTLNIHPVEKVDAATYHCQQSTEDPWTFGGGTKLEIKGGSGGSGGSEVQLVESGGGLVQPGGSLRLSCAASGYSFTGYTMNWVRDAPGKCLEWVALINPYKGVSTYNQKFKDRFTISVDKSKNTAYLQMNSLRAEDTAVYYCARSGYYGDSDWYFDVWGQGTLVTVSS
chain 2: DIQMTQSPSSLSASVGDRVTITCRASQDIRNYLNWYQKKPGKAPKLLIYYTSRLESGVPSRFSGSGSGTDYTLTISSLQPEDFATYYCQQGNTLPWTFGCGTKVEIKGGSGGSGGSQVQLQQSGAELVRPGSSVKISCKASGYAFSSYWMNWVKKRPGQGLEWIGQIWPGDGDTNYNGKFKGKATLTADESSSTAYMQLSSLASEDSAVYFCARRETTTVGRYYYAMDYWGQGTSVTVSS
notes: Same mutations as #9, with the 9-residue linker; also called 025; Sample25; not shown: hinge-CH2-CH3
B9: Antibody #43, CD19×CD3 DICAD (bispecific antibody)
chain 1: B8 chain 1 with D42Q
chain 2: B8 chain 2 with K155Q
notes: also called 043; Sample43; not shown: hinge-CH2-CH3

Experiments:
human CD19 (His-tagged) [1] = target: T1, human CD19 (His-tagged) (human, UniProt P15391 20-291); assay: SPR (Biacore); CD19 captured on anti-His antibody chip, antibody injected at 5 concentrations
T1 construct: Captured on chips carrying anti-histidine antibodies
T1 sequence (looked up): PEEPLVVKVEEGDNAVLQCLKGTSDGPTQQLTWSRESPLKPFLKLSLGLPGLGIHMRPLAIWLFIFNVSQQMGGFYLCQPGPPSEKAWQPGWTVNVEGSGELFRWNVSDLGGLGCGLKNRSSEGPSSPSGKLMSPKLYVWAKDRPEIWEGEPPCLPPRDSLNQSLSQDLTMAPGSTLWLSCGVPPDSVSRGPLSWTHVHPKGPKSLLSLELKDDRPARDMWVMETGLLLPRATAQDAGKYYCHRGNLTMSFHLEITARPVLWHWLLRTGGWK
Method: (§1) A series of sample antibodies were assayed for SPR (Surface Plasmon Resonance) signals upon human CD19 binding on the Biacore platform. Kₐ, Kd and KD were calculated from the experimental results and used to evaluate affinity of the antibodies for human CD19. CD19 molecules as ligands were immobilized to chips conjugated with anti-histine antibodies. Sample antibodies, at 5 different concentrations, were injected to the system to be analyzed. Anti-CD3 antibody UCHT1 and anti-CD19 antibody HD37 were also examined as #20 and #21, respectively. The results are shonw in FIG. 7 and Table 15.

human CD3 = target: T2, human CD3 (human, UniProt P07766 23-126); assay: SPR (Biacore); CD3 captured on anti-His antibody chip, antibody injected at 5 concentrations
T2 construct: not shown: A CD3 delta or gamma partner chain is possible if the reagent was a heterodimer
T2 sequence (P07766 23-126 limits assumed): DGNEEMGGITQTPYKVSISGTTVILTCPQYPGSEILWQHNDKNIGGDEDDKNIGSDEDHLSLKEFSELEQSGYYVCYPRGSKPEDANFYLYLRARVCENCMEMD
Method: as §1, with “CD3” for “CD19”, “Ka,” for “Kₐ,”, “CD3. CD3” for “CD19. CD19”, “analyzed.” for “analyzed. Anti-CD3 antibody UCHT1 and anti-CD19 antibody HD37 were also examined as #20 and #21, respectively. The results are shonw in FIG. 7 and Table 15.”

human CD3E [2] = target: T3, human CD3E (human, UniProt P07766 23-126, limits assumed); assay: SPR (BIAcore); human CD3E captured on anti-His antibody chip, antibody at 5 concentrations
T3 construct: Captured on chips carrying anti-histidine antibodies, 'using the same method' as the His-tagged CD19
T3 sequence (P07766 23-126 limits assumed): as above
Method: (§2) Binding affinity for human CD3E or human CD19 of the CD3×CD19 bispecific antibody was tested by BIAcore, and Kₐ, Kd and KD values of the antibody were calculated based on the results. His-tagged human CD19 was used as ligand and captured on chips conjugated with anti-histine antibodies. Candidate molecules in five different concentrations were analyzed for their affinity for CD19. Affinity for human CD3E was examined using the same method.

human CD19 (His-tagged) [3] = target: T1, human CD19 (His-tagged); assay: SPR (BIAcore); His-tagged human CD19 captured on anti-His antibody chip, antibody at 5 concentrations
Method: as §2

human CD19 (His-tagged) [4] = target: T1, human CD19 (His-tagged); assay: SPR (BIAcore); human CD19 captured on anti-His antibody chip, antibody at 5 concentrations
Method: (§3) Binding affinity for human CD3E or human CD19 of the CD3×CD19×CD8 tri-specific antibody was tested by BIAcore. Kₐ, Kd and KD were calculated from the experimental results and used to evaluate affinity of the antibodies for human CD3E and CD19. CD3E and CD19 molecules as ligands were immobilized to chips conjugated with anti-histine antibodies. Antibody molecules in five different concentrations were analyzed for their affinity for CD19. Affinity for human CD3E was examined using the same method.

human CD3E [5] = target: T3, human CD3E; assay: SPR (BIAcore); human CD3E captured on anti-His antibody chip, antibody at 5 concentrations; remark: listed apart in the source
Method: as §3

human CD19 (His-tagged) [6] = target: T1, human CD19 (His-tagged); assay: SPR (Biacore); CD19 captured on anti-His antibody chip, antibody injected at 5 concentrations; remark: listed apart in the source
Method: as §1, with “Affinity: Affinity kinetics studies based on human CD19-binding assays. A” for “A”, “analyzed.” for “analyzed. Anti-CD3 antibody UCHT1 and anti-CD19 antibody HD37 were also examined as #20 and #21, respectively. The results are shonw in FIG. 7 and Table 15.”

Row | Binder | Kd (human CD19 (His-tagged) [1]) [nM] | Kd (human CD3) [nM] | Kd (human CD19 (His-tagged) [6]) [nM] | other results
1 | B1 | 0.769 |  |  | 
2 | B2 | 0.26 | 172 |  | 
3 | B3 |  |  |  | Kd (human CD3E [2]): 31.4 nM; koff (human CD3E [2]): 0.0153 s⁻¹; kon (human CD3E [2]): 488000 M⁻¹ s⁻¹; Kd (human CD19 (His-tagged) [3]): 1.83 nM; koff (human CD19 (His-tagged) [3]): 0.000669 s⁻¹; kon (human CD19 (His-tagged) [3]): 365000 M⁻¹ s⁻¹
4 | B4 |  |  |  | Kd (human CD19 (His-tagged) [4]): 8.63 nM; Kd (human CD3E [5]): 31.3 nM
5 | B5 | 0.537 |  | 3.81 | binding result (human CD3): no binding
6 | B6 |  |  | 0.806 | 
7 | B7 |  |  | 1.73 | 
8 | B8 | 1 | 34.9 |  | 
9 | B9 | 0.537 | 269 |  | 
